Values quoted from earlier work in publication PMC3563353.

Target: 4-phenylbutyryl-His-DPhe-Arg-Trp-Gly-Lys
Test: competition binding

MC4R, sequence (P32245 whole entry): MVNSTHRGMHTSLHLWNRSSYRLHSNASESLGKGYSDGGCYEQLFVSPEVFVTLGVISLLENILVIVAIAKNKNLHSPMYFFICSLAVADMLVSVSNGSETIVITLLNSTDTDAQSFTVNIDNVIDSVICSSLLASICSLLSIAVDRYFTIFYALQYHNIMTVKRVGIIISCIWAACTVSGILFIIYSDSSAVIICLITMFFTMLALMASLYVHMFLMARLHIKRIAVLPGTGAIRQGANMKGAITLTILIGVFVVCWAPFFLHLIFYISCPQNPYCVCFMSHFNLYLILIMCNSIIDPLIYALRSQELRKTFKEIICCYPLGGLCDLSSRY
MC5R, sequence (P33032 whole entry): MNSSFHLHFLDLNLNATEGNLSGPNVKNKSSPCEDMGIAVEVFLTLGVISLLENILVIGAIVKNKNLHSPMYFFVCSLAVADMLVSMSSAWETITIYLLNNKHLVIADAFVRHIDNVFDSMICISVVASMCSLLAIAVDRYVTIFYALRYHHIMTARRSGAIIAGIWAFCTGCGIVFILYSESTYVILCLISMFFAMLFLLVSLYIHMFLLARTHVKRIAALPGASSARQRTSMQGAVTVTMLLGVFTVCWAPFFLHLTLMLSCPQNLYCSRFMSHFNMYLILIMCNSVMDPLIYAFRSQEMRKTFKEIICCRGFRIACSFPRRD
MC1R, sequence (Q01726 whole entry): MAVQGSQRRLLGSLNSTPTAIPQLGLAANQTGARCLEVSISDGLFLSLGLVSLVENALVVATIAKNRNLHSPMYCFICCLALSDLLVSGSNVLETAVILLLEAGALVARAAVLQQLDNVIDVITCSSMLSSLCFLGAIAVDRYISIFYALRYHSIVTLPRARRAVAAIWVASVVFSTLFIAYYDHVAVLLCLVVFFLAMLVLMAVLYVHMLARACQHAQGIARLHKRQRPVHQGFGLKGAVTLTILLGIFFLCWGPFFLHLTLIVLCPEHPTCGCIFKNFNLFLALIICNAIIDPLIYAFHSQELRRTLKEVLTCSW

Substance | Ki [nM]
MC1R (from UniProt Q01726) | 0.24
MC4R (from UniProt P32245) | 254
MC5R (from UniProt P33032) | 46
